Test results reported in the RNAGym collection of RNA variant scans (doi:10.1093/nar/gkz1192).

B1: CPEB3 Ribozyme (parent)
chain: UAACAGGGGGCCACAGCAGAAGCGUUCACGUCGCAGCCCCUGUCAGAUUCUGGUGAAUCUGCGAAUUCUGCUGUAUAUCUC

Variants of: B1
Assay: self-cleavage, relative activity (ratio to wild type); higher = more cleavage; in vitro, sequencing
Outline: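 Barcoded CPEB3 ribozyme mutants, produced by rounds of error-prone PCR, self-cleaved while being transcribed with T7 RNA polymerase for 5 hours at 37°C and during a subsequent 15 min DNase I step before EDTA was added. Sequencing of template-switched cDNA on Illumina gave cleaved and total reads, and DNA sequencing assigned barcodes to variants. Each variant's relative activity is its cleaved/total read fraction divided by the unmutated ribozyme's fraction, averaged across three batches. A variant needed a minimum of 5 reads.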

Row | Variant | self-cleavage
1 | UAACAGGGGGCCACAGCAGAAGCGUUCACGUCUCAUCCCCUGUCAGAUUCUGGUGAAUCUGCGAAUUCUGCUGUAUAUCUC | 0.13
2 | UAACAGGGGGCCACAGCAGAAGCGUUCACGUCCCAGCCCCUGUCAGAUUCUGGUGAAUCUGUGAAUUCUGCUGUAUAUCUC | 0.14
3 | UAACAGGGGGCCACAGCAGAAGCGUUCACGUCUCAGCCCCUGUCAGAUUCUGGUGAAUCCGCGAAUUCUGCUGUAUAUCUC | 0.11
4 | UAACAGGGGGCCACAGCAGAAGCGUUCACGUCUCAGCCCCUGUCAGAUUCUGGUGAAUCAGCGAAUUCUGCUGUAUAUCUC | 0.48
5 | UAACAGGGGGCCACAGCAGAAGCGUUCACGUCUCAGCCCCUGUCAGAUUCUGGUGAAUCUCCGAAUUCUGCUGUAUAUCUC | 0.13
6 | UAACAGGGGGCCACAGCAGAAGCGUUCACGUCUCAGCACCUGUCAGAUUCUGGUGAAUCUGCGAAUUCUGCUGUAUAUCUC | 0.2
7 | UAACAGGGGGCCACAGCAGAAGCGUUCACGUCUCAGCUCCUGUCAGAUUCUGGUGAAUCUGCGAAUUCUGCUGUAUAUCUC | 0.36
8 | UAACAGGGGGCCACAGCAGAAGCGUUCACGUCCCAGCCCCUGUCAGAUUCUGGUGAAUCUGCGAAUUCUGCCGUAUAUCUC | 0.19
9 | UAACAGGGGGCCACAGCAGAAGCGUUCACGUCCCAGCCCCUGUCAGAUUCUGGUGAAUCUGCGAAUUCUGCAGUAUAUCUC | 0.09
10 | UAACAGGGGGCCACAGCAGAAGCGUUCACGUCCCAGCCCCUGUCAGAUUCUGGUGAAUCUGCGAAUUCUGCUGUACAUCUC | 0.12
11 | UAACAGGGGGCCACAGCAGAAGCGUUCACGUCUCAGCCCCUGUCAGAUUCUGGUGAAUCUGCGAAUUCCGCUGUAUAUCUC | 0.2
12 | UAACAGGGGGCCACAGCAGAAGCGUUCACGUCUCAGCCCCUGUCAAAUUCUGGUGAAUCUGCGAAUUCUGCUGUAUAUCUC | 0.44
13 | UAACAGGGGGCCACAGCAGAAGCGUUCACGUCCCAGCCCCUGCCAGAUUCUGGUGAAUCUGCGAAUUCUGCUGUAUAUCUC | 0.22
14 | UAACAGGGGGCCACAGCAGAAGCGUUCACGUCCCAGCCCCUGACAGAUUCUGGUGAAUCUGCGAAUUCUGCUGUAUAUCUC | 0.18
15 | UAACAGGGGGCCACAGCAGAAGCGUUCACGUCCCAGCCCCUGUCAGAUUCUGCUGAAUCUGCGAAUUCUGCUGUAUAUCUC | 0.07
16 | UAACAGGGGGCCACAGCAGAAGCGUUCACGUCUCAGCCCCUGUCAGAUUCUGGUGAAUCUGCGAAUUCUGCUGUAUAUCUC | 0.24
17 | UAACAGGGGGCCACAGCAGAAGCGUUCACGUCCCAGCCCCUGUCAGAUCCUGGUGAAUCUGCGAAUUCUGCUGUAUAUCUC | 0.12
18 | UAACAGGGGGCCACAGCAGAAGCGUUCACGUCUCAGCCCCUGUCAGAUUCUGGUGAAUCUGCGAAUUCUGCUGUAUAUCAC | 0.25
19 | UAACAGGGGGCCACAGCAGAAGCGUUCACGUCUCAGCCCCUGUCAGAUUCUGGUGAAUCUGCGAAUUCUGCUGUAUAUCCC | 0.44
20 | UAACAGGGGGCCACAGCAGAAGCGUUCACGUCCCAGCCCAUGUCAGAUUCUGGUGAAUCUGCGAAUUCUGCUGUAUAUCUC | 0.15
21 | UAACAGGGGGCCACAGCAGAAGCGUUCACGUCGAAGCCCCUGUCAGAUUCUGGUGAAUCUGCGAAUUCUGCUGUAUAUCUC | 0.34
22 | UAACAGGGGGCCACAGCAGAAGCGUUCACGUCCCAGCCCCUGUCAGAUUCUGGUGAAUCCGCGAAUUCUGCUGUAUAUCUC | 0.11
23 | UAACAGGGGGCCACAGCAGAAGCGUUCACGUCCCAGCCCCUGUCAGAUUCUGGUGAAUCGGCGAAUUCUGCUGUAUAUCUC | 0.12

Row | Variant | self-cleavage
24 | UAACAGGGGGCCACAGCAGAAGCGUUCACGUCCCAGCCCCUGUCAGAUUCUGGUGAAUCAGCGAAUUCUGCUGUAUAUCUC | 0.25
25 | UAACAGGGGGCCACAGCAGAAGCGUUCACGUCUCAGCCCCUGUCAGAUUCUGGUGAAUCUGCGGAUUCUGCUGUAUAUCUC | 0.12
26 | UAACAGGGGGCCACAGCAGAAGCGUUCACGUCUCAGCCCCUGUCAGAUUCUGGUGAAUCUGCGAAUUCUGCGGUAUAUCUC | 0.28
27 | UAACAGGGGGCCACAGCAGAAGCGUUCACGUCUCAGCCCCUGUCAGAUUCUGGUGAAUCUGCGAAUUCUGCCGUAUAUCUC | 0.19
28 | UAACAGGGGGCCACAGCAGAAGCGUUCACGUCUCAGCCCCUGCCAGAUUCUGGUGAAUCUGCGAAUUCUGCUGUAUAUCUC | 0.48
29 | UAACAGGGGGCCACAGCAGAAGCGUUCACGUCUCAGCCCCUGUCCGAUUCUGGUGAAUCUGCGAAUUCUGCUGUAUAUCUC | 0.12
30 | UAACAGGGGGCCACAGCAGAAGCGUUCACGUCUCAGCCCCUGUCGGAUUCUGGUGAAUCUGCGAAUUCUGCUGUAUAUCUC | 0.13
31 | UAACAGGGGGCCACAGCAGAAGCGUUCACGUCUCAGCCCCUGUCAGAUUCUGGUGUAUCUGCGAAUUCUGCUGUAUAUCUC | 0.42
32 | UAACAGGGGGCCACAGCAGAAGCGUUCACGUCUCAGCCCCUGUCAGAUUCUGGUGGAUCUGCGAAUUCUGCUGUAUAUCUC | 0.29
33 | UAACAGGGGGCCACAGCAGAAGCGUUCACGUCCCAGCCCCUGUCAGAUUCUGGUGAAUCUGCGAAUUCUGCUGUAUAUUUC | 0.19
34 | UAACAGGGGGCCACAGCAGAAGCGUUCACGUCCCAGCCCCUGUCAGAUUCUGGCGAAUCUGCGAAUUCUGCUGUAUAUCUC | 0.13
35 | UAACAGGGGGCCACAGCAGAAGCGUUCACGUCGAAGCCCCUGUCGGAUUCUGGUGAAUCUGCGAAUUCUGCUGUAUAUCUC | 0.37
36 | UAACAGGGGGCCACAGCAGAAGCGUUCACGUCGAAGCCCCUGUCCGAUUCUGGUGAAUCUGCGAAUUCUGCUGUAUAUCUC | 0.19
37 | UAACAGGGGGCCACAGCAGAAGCGUUCACGUCUCAGCCCCUGUCAGACUCUGGUGAAUCUGCGAAUUCUGCUGUAUAUCUC | 0.08
38 | UAACAGGGGGCCACAGCAGAAGCGUUCACGUCCCAGCCCCUGUCAGAUUCCGGUGAAUCUGCGAAUUCUGCUGUAUAUCUC | 0.44
39 | UAACAGGGGGCCACAGCAGAAGCGUUCACGUCCCAGCCCCUGUCAGAUUCAGGUGAAUCUGCGAAUUCUGCUGUAUAUCUC | 0.15
40 | UAACAGGGGGCCACAGCAGAAGCGUUCACGUCUCAGCCCCUGUCAGAUUCUGGUGAAUCUGCGAAUUCUGCUGUUUAUCUC | 0.81
41 | UAACAGGGGGCCACAGCAGAAGCGUUCACGUCUCAGCCCCUGUCAGAUUCUGGUGAAUCUGCGAGUUCUGCUGUAUAUCUC | 0.43
42 | UAACAGGGGGCCACAGCAGAAGCGUUCACGUCUCAGCCCCUGUCAGAUUCUGGUGAAUCUGCGAUUUCUGCUGUAUAUCUC | 0.13
43 | UAACAGGGGGCCACAGCAGAAGCGUUCACGUCCCACCCCCUGUCAGAUUCUGGUGAAUCUGCGAAUUCUGCUGUAUAUCUC | 0.15
44 | UAACAGGGGGCCACAGCAGAAGCGUUCACGUCCCAGCCCCUGUCAGAUUCUGGUGAAUCUGCGAAUUCCGCUGUAUAUCUC | 0.13
45 | UAACAGGGGGCCACAGCAGAAGCGUUCACGUCCCAGCCCCUGUCAGAUUCUGGUGAAUCUGCGAAUUCAGCUGUAUAUCUC | 0.07
46 | UAACAGGGGGCCACAGCAGAAGCGUUCACGUCUCAGCCCCUGUCAGAUUCUGGUGAAUCUGCGAAUUCUGCUGUACAUCUC | 0.32

Row | Variant | self-cleavage
47 | UAACAGGGGGCCACAGCAGAAGCGUUCACGUCUCAGCCCCUGUCAGAUUCUGGUGAGUCUGCGAAUUCUGCUGUAUAUCUC | 0.28
48 | UAACAGGGGGCCACAGCAGAAGCGUUCACGUCCCAGCCCCUGUCAGAUUCUGGUGAAUCUGCGAAUUCUGCUGUAUAUCCC | 0.27
49 | UAACAGGGGGCCACAGCAGAAGCGUUCACGUCUCAGCCCCUGUCAGAUUCUGGUGAAUCUGCGAAUCCUGCUGUAUAUCUC | 0.16
50 | UAACAGGGGGCCACAGCAGAAGCGUUCACGUCCCAGCCCCUGUCAGACUCUGGUGAAUCUGCGAAUUCUGCUGUAUAUCUC | 0.44
51 | UAACAGGGGGCCACAGCAGAAGCGUUCACGUCCCAGCCCCUGUCAGAAUCUGGUGAAUCUGCGAAUUCUGCUGUAUAUCUC | 0.15
52 | UAACAGGGGGCCACAGCAGAAGCGUUCACGUCUCUGCCCCUGUCAGAUUCUGGUGAAUCUGCGAAUUCUGCUGUAUAUCUC | 0.15
53 | UAACAGGGGGCCACAGCAGAAGCGUUCACGUCUCAGCCCCUGUCAGAUUCUGGUGAACCUGCGAAUUCUGCUGUAUAUCUC | 0.13
54 | UAACAGGGGGCCACAGCAGAAGCGUUCACGUCGAGGCCCCUGUCAGAUUCUGGUGAAUCUGCGAAUUCUGCUGUAUAUCUC | 1.07
55 | UAACAGGGGGCCACAGCAGAAGCGUUCACGUCUCAGCCCCCGUCAGAUUCUGGUGAAUCUGCGAAUUCUGCUGUAUAUCUC | 0.25
56 | UAACAGGGGGCCACAGCAGAAGCGUUCACGUCUCAGCCCCAGUCAGAUUCUGGUGAAUCUGCGAAUUCUGCUGUAUAUCUC | 0.18
57 | UAACAGGGGGCCACAGCAGAAGCGUUCACGUCUCAGCCCCUGUCAGAUGCUGGUGAAUCUGCGAAUUCUGCUGUAUAUCUC | 0.2
58 | UAACAGGGGGCCACAGCAGAAGCGUUCACGUCUCAGCCCCUGUCAGAUCCUGGUGAAUCUGCGAAUUCUGCUGUAUAUCUC | 0.15
59 | UAACAGGGGGCCACAGCAGAAGCGUUCACGUCCCAGCCCCUGUCAGAUUCUAGUGAAUCUGCGAAUUCUGCUGUAUAUCUC | 0.19
60 | UAACAGGGGGCCACAGCAGAAGCGUUCACGUCUCAGCCCCUGUCAGAUUCGGGUGAAUCUGCGAAUUCUGCUGUAUAUCUC | 0.09
61 | UAACAGGGGGCCACAGCAGAAGCGUUCACGUCUCAGCCCCUGUCAGAUUCCGGUGAAUCUGCGAAUUCUGCUGUAUAUCUC | 0.09
62 | UAACAGGGGGCCACAGCAGAAGCGUUCACGUCCCAGCCCCUGUCAGAUUCUGGUGAAUCUGCGAAUACUGCUGUAUAUCUC | 0.17
63 | UAACAGGGGGCCACAGCAGAAGCGUUCACGUCCCAGCCCCUGUCAGAUUCUGGUGAAUCUGCGAAUCCUGCUGUAUAUCUC | 0.12
64 | UAACAGGGGGCCACAGCAGAAGCGUUCACGUCCCAGCCCCAGUCAGAUUCUGGUGAAUCUGCGAAUUCUGCUGUAUAUCUC | 0.16
65 | UAACAGGGGGCCACAGCAGAAGCGUUCACGUCUCAGCCCCUGUCAGAUUCUGGUGAAUCUGCGAACUCUGCUGUAUAUCUC | 0.13
66 | UAACAGGGGGCCACAGCAGAAGCGUUCACGUCUCAGCCCCUGUCAGAUUCUGGUGAAUCUGCGAAAUCUGCUGUAUAUCUC | 0.16
67 | UAACAGGGGGCCACAGCAGAAGCGUUCACGUCCCAGCCCCUGUCAGAUUCUGGUGAAUCUGCGAAUUCUGCUGUAUACCUC | 0.09
68 | UAACAGGGGGCCACAGCAGAAGCGUUCACGUCCCAGCCCCUGUCAGAUUCUGGUGAAUCUGCGAAUUCUGCUGUAUAACUC | 0.08
